Experimental data: US20240301048A1 (LANIER BIOTHERAPEUTICS, published 2024)
Blank lines part the entries; values can stand above or below the binder they belong to.

Tests used:
[1] = molecular target: T1, recombinant human IL-17A (R&D Systems) (human, UniProt Q16552 24-155); assay: SPR, Biacore T-100; antibody immobilized on CM5 chip, rhIL17A 2.5-40 nM as analyte, single cycle kinetics
T1 construct: Bought recombinant protein; also called rhIL17A
Experimental: The surface was regenerated with a 30 second exposure of 10 mM Glycine-HCL pH 1.5. Single cycle kinetic analysis was performed on each antibody with the reference cell subtracted.

[2] = molecular target: T1, recombinant human IL-17A (R&D Systems); assay: cell-based or functional assay
[3] = molecular target: T1, recombinant human IL-17A (R&D Systems); assay: cell-based or functional assay; remark: listed apart in the source
[4] = molecular target: T1, recombinant human IL-17A (R&D Systems); assay: cell-based or functional assay; remark: listed apart in the source

T1 sequence (Q16552 24-155 limits assumed): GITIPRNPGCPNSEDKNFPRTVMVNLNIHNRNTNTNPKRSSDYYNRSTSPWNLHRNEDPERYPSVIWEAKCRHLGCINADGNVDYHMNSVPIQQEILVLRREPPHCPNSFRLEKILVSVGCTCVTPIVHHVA

B1: ABM64 (antibody, V domains shown)
VH: QVHVKQSGPELVRPGVSVKISCKGSGYTFTDYAMHWVKQSHAKSLEWIGVISTYSGNTNYNQKFKGKATMTVDKSSSTAYMELARLTSEDSAIYYCARGNYGSDWGQGTLVTVSA
VL: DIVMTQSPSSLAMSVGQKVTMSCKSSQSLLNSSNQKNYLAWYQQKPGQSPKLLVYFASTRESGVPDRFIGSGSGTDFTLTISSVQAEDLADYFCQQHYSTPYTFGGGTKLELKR
Kd [1]: 0.248 nM
koff [1]: 0.000311 s⁻¹
kon [1]: 1.25e+06 M⁻¹ s⁻¹

B3: ABM60 (antibody, V domains shown)
VH: EVHLKESGPDLVAPSQSLSITCTVSGFSLTTYGVHWVRQPPGKGLEWLVVIWSDGLTTYNSALKSRLSISKDNSKSQVFLKMNSLRTDDTAMYYCARDYTYEYAMDYWGQGTTVTVSS
VL: DILLTQSPLSLPVSLGDQASISCRSSQSLVHSNGNTYLHWYLQKPGQSPKLLIYKVSNRFSGVPDRFSGSESGTDFTLKISRVEAEDLGVYFCSQSTHVPFTFGSGTKLEIKR
IC50 (read off the curve), IL-6 in 3T3 cells [2]: ~0.8 µg/mL
Kd [1]: 0.24 nM
koff [1]: 5.65e-05 s⁻¹
kon [1]: 278000 M⁻¹ s⁻¹

B4: ABM59 (antibody, V domains shown)
VH: EVKLVESGGGLVKPGGSLKLSCAASGFAFSSYDMSWVRQTPEKRLEWVAYISSGGGNTYYPDTVKGRFTISRDNAKNTLYLQMSSLKSEDTAMYYCAREALTMISTRDYYAMDYWGQGTSVTVSS
VL: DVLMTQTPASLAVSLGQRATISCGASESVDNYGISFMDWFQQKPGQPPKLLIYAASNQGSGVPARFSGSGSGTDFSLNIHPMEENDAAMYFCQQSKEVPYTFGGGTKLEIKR
Kd [1]: 0.506 nM
koff [1]: 0.00057 s⁻¹
kon [1]: 1.13e+06 M⁻¹ s⁻¹

These reach a lower Kd [1]. Values come first.

IC50 (read off the curve), IL-6 in 3T3 cells [2]: ~0.2 µg/mL
Kd [1]: 0.0069 nM
koff [1]: 1.39e-05 s⁻¹
kon [1]: 2.01e+06 M⁻¹ s⁻¹
IL-17A Bioassay Potency (IC50, nM) [3]: 0.39 nM
IC50 (read off the curve), CXCL1 in HT29 cells [4]: ~0.1 µg/mL
B2: Ixekizumab (antibody, V domains shown)
VH: QVQLVQSGAEVKKPGSSVKVSCKASGYSFTDYHIHWVRQAPGQGLEWMGVINPMYGTTDYNQRFKGRVTITADESTSTAYMELSSLRSEDTAVYYCARYDYFTGTGVYWGQGTLVTVSS
VL: DIVMTQTPLSLSVTPGQPASISCRSSRSLVHSRGNTYLHWYLQKPGQSPQLLIYKVSNRFIGVPDRFSGSGSGTDFTLKISRVEAEDVGVYYCSQSTHLPFTFGQGTKLEIKR

Kd [1]: 0.169 nM
koff [1]: 0.000121 s⁻¹
kon [1]: 713000 M⁻¹ s⁻¹
B5: ABM67 (antibody, V domains shown)
VH: EVKLVESGGGLVKPGGSLKLSCAASGFTFSSYAMSWVRQTPEKRLEWVATISSGGSYTYYPDSVKGRFTISRDNAKNTLYLQMSSLRSEDTAMYYCARQNWDAFVYWGQGTLVTASA
VL: DIVLTQSPAILSVSPGERVSFSCRAGQSIGTSIHWYQRRTNGSPRLLIKSASESISGIPSRFSGSGSGTDFTLSINSVESEDIADYYCQQSNSWPLTFGAGTKLEIKR
